Experimental findings from patent US20220332804A1 (CSL INNOVATION, published 2022) are described below.

Common to all, as to assay: SPR, mAb captured, C2 mutant analyte;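 also: Anti-C2 mAbs captured on goat anti-human IgG Biacore CM5 chips, alanine or serine C2 surface mutants flowed over at 37 °C, double-referenced sensorgrams fitted to a 1:1 binding model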
(In general: In SPR one partner is held on a chip, and binding of the other changes the refractive index at the surface.)

One test addresses T1, human C2 N268A (human, UniProt P06681 21-752).
T1 sequence: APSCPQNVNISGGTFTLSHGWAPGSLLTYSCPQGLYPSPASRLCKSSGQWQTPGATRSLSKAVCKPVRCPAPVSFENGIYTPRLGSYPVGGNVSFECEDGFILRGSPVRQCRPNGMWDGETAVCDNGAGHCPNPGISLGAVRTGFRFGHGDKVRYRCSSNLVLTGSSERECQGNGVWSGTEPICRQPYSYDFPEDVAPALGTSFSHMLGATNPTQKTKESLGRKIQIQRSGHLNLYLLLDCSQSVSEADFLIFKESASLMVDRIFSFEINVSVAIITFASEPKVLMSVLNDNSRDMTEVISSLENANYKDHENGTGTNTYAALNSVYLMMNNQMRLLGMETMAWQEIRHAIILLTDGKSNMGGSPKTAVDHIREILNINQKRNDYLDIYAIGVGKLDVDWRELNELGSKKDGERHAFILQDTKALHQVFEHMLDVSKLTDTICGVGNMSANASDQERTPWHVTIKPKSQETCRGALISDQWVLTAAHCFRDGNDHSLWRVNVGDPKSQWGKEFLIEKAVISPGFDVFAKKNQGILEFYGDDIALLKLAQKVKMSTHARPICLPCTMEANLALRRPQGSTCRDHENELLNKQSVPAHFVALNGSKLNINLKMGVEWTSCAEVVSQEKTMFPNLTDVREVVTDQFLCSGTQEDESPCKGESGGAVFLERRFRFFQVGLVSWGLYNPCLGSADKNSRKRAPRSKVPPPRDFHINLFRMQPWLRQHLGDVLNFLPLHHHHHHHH

The next test has as its target T2, human C2 L279A (human, UniProt P06681 21-752).
T2 sequence: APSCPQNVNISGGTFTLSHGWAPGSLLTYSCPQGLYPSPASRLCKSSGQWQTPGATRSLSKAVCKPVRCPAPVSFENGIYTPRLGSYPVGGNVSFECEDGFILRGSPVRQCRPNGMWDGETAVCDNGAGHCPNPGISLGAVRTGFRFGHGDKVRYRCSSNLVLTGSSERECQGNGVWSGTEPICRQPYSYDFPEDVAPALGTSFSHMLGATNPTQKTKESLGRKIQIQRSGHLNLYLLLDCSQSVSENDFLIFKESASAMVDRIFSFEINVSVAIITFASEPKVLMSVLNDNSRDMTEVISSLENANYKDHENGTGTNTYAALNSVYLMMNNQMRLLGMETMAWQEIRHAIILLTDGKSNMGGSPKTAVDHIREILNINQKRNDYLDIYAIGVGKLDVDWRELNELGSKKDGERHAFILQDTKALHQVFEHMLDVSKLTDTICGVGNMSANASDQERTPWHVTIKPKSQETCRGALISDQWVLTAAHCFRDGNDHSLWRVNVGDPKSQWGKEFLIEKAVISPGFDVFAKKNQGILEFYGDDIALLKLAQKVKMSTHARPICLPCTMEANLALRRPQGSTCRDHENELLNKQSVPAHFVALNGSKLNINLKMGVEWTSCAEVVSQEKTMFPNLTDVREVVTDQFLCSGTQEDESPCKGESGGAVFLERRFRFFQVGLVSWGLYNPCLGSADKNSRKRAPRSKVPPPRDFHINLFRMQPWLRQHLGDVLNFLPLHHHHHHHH

Another test has as its target T3, human C2 A326S (human, UniProt P06681 21-752).
T3 sequence: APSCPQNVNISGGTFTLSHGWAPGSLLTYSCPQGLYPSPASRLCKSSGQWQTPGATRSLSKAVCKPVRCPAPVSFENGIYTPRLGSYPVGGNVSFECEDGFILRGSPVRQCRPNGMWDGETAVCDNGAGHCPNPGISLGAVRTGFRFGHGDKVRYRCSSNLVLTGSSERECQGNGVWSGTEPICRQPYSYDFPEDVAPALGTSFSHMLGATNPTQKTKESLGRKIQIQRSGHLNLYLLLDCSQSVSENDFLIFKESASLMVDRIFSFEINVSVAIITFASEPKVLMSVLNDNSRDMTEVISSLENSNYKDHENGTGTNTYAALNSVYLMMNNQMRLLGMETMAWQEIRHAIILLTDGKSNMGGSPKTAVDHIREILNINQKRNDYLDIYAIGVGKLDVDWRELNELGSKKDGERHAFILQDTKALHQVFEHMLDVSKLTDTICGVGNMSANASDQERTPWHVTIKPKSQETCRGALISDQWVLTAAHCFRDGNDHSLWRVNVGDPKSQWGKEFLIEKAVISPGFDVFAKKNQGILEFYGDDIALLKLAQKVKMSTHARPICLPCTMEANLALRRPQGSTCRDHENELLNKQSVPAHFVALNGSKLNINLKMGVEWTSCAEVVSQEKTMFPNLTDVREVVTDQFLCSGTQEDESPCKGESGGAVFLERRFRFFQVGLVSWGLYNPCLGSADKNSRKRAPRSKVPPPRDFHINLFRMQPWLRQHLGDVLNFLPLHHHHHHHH

For a further test, the target named is T4, human C2 S456A (human, UniProt P06681 21-752).
T4 sequence: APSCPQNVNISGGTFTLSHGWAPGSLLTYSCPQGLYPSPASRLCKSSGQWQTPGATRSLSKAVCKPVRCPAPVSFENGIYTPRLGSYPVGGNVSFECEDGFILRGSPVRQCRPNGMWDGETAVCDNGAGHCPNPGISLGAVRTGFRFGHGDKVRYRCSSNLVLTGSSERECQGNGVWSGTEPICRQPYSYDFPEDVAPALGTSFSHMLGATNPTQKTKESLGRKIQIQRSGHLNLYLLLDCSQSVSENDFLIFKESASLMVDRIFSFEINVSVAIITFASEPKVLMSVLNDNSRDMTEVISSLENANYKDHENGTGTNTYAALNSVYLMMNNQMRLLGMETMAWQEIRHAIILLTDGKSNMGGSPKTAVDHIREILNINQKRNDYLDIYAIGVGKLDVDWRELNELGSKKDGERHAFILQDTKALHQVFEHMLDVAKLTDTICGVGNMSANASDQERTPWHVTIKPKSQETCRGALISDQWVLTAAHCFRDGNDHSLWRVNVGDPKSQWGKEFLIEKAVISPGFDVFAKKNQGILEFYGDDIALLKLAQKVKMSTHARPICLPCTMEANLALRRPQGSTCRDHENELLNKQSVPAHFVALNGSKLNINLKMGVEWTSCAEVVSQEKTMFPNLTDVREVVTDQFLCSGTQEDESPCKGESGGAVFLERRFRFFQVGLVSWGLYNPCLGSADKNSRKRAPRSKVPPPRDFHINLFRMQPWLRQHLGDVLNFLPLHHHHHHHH

B1: RF16-214 (antibody, V domains shown)
VH: EVQLLESGGGLVQPGGSLRLSCAASGFTFSWYQMMWVRQAPGKGLEWVSRIYPSGGGTAYADSVKGRFTISRDNSKNTLYLQMNSLRAEDTAVYYCARDAGYGDNWGQGTLVTVSS
VL: QSALTQPPSVSVSPGQTASITCSGDKLGEKYASWYQQKAGQSPVMVIYQDRKRPSGIPERFSGSNSGNTATLTISGTQAMDEADYYCQAWDTRAVVFGGGTKLTVLG
Take B1: the Kd with human C2 N268A was determined as 60.8 nM; with human C2 L279A, 240 nM; with human C2 A326S, 45.5 nM; with human C2 S456A it was 157 nM.

For orientation: Kd means a measure of binding affinity in units of concentration. A high value points to lower affinity.
